Consider eight molecules from US20250250357A1 (NANJING ZAIMING PHARMACEUTICAL, published 2025).

The target in assay [1] is T1, human MSLN full-length protein (NCBI: AAH09272.1) expressed on HEK293T-hMSLN-B8 cells (human, UniProt Q13421 296-598).
T1 construct: Whole encoded precursor
The assay is described as follows: FACS on HEK293T-hMSLN-B8 cells.

The target in assay [2] is T2, human MSLN-R3 protein (Met487-Ser606 of NCBI AAH09272.1) expressed on HEK293T-hMSLN-R3 cells (human, UniProt Q13421 487-606).
T2 construct: also called Region3
The assay can be described thus: FACS on HEK293T-hMSLN-R3 cells.

For assay [3], the target named is T3, human MSLN protein endogenously expressed on OVCAR3 tumor cells (human, UniProt Q13421 296-598).
T3 construct: whole, on cells; Endogenous target on OVCAR3 cells; kept apart from the recombinant full-length construct; also called mesothelin
The assay is described as follows: FACS on OVCAR3 cells.

In assay [4] the target is T4, human MSLN-hFc protein (Acro, Cat. No. MSN-H5253) (human, UniProt Q13421 296-580).
T4 construct: the method names the coated protein as human MSLN-hFc (Acro); also called human MSLN full-length protein
The assay is described as follows: ELISA on coated antigen, antibody 0.001 nM. In general terms: ELISA stands for enzyme-linked immunosorbent assay.

For assay [5], the target named is T5, human MSLN-R3 protein (human, UniProt Q13421 487-598).
T5 construct: also called hMSLN-R3
The assay is described as follows: ELISA on coated antigen, antibody 0.0001 nM.

The target of assay [6] is T5, human MSLN-R3 protein. The assay is described as follows: ELISA on coated antigen, antibody 10 nM.
Assay [7] addresses T5, human MSLN-R3 protein. The assay is described as follows: ELISA on coated antigen, antibody 0.1 nM.
Assay [8] addresses T5, human MSLN-R3 protein. The assay can be described thus: ELISA on coated antigen, antibody 0.001 nM.
Assay [9] deals with T4, human MSLN-hFc protein (Acro, Cat. No. …). The assay can be described thus: ELISA on coated antigen, antibody 10 nM.
Assay [10] has the same target. The assay is described as follows: ELISA on coated antigen, antibody 0.0001 nM.
For assay [11] the target is unchanged. The assay can be described thus: ELISA on coated antigen, antibody 1 nM.
For assay [12] the target is unchanged. The assay can be described thus: ELISA on coated antigen, antibody 100 nM.
For assay [13], the target named is T5, human MSLN-R3 protein. The assay is described as follows: ELISA on coated antigen, antibody 1 nM.
The target in assay [14] is T5, human MSLN-R3 protein. The assay is described as follows: ELISA on coated antigen, antibody 0.01 nM.
The target of assay [15] is T5, human MSLN-R3 protein. The assay can be described thus: ELISA on coated antigen, antibody 100 nM.
Assay [16] deals with T4, human MSLN-hFc protein (Acro, Cat. No. …). The assay is described as follows: ELISA on coated antigen, antibody 0.01 nM.
The target is the same in assay [17]. The assay is described as follows: ELISA on coated antigen, antibody 0.1 nM.

T1 sequence (Q13421 other isoform, or with tags, fused parts or gaps limits assumed): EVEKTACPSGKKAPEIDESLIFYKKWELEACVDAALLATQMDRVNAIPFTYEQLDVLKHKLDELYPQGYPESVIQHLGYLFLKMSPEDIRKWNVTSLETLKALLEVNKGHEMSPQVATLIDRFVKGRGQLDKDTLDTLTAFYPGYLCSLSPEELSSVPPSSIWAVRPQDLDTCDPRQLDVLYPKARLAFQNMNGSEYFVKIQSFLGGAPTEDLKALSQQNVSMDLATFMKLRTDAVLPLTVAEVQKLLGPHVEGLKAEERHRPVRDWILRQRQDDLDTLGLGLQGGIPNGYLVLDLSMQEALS
T4 sequence (Q13421 other isoform, or with tags, fused parts or gaps limits assumed): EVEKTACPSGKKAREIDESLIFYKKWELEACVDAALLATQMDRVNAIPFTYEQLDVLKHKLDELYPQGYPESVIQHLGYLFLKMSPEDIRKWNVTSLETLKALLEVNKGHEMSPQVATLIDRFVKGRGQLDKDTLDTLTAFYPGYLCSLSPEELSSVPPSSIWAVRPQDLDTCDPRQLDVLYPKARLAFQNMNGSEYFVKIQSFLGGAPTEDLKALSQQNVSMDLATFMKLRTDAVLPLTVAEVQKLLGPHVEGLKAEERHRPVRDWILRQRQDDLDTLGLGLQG
T3 sequence (Q13421 other isoform, or with tags, fused parts or gaps): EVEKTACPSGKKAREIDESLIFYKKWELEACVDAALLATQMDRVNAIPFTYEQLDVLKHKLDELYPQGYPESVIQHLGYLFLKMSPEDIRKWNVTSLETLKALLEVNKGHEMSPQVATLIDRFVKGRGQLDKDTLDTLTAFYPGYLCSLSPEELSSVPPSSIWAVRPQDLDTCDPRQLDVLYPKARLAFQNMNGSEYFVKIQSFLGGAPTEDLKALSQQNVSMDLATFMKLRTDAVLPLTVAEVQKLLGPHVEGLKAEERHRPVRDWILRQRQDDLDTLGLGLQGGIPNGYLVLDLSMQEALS
T5 sequence (Q13421 495-606, form in doubt): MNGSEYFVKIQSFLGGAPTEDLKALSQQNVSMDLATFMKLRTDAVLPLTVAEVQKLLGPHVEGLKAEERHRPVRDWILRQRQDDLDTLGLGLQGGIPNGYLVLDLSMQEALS
T2 sequence (Q13421 495-614): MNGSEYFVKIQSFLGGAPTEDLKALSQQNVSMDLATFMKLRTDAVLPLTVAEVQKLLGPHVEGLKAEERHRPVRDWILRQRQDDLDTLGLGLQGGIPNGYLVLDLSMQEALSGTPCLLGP

B1: S009-F2.38.12 (antibody, human IgG1, kappa, V domains shown)
VH: QVQLQQPGTELVKPGASVKLSCKASGYTFTSYWMHWVKQRPGQGLEWIGNINPSNGGTNYNEKIKNKATLTVDKSSSTAYMQLSSLTSEDSAVYYCARWNYYGNYPFDYWGQGTTLTVSS
VL: DIVMTQSQKFMSTTVGDRVSITCKASQNVGTAVAWYQQKPGQSPKLLIYSASNRYTGVPDRFTGSGSGTDFTLTISNMQSEDLADYFCQQYSSYPLTFGAGTKLELKR
notes: human-murine chimeric antibody, human IgG1/kappa constant regions
In general, EC50 refers to the concentration giving half of the maximal effect. High values mean weaker potency, low ones greater potency. B1: in assay [1], the EC50 is ~0.82 nM and the “Maximum mean fluorescence intensity” value is 97700. Also, in [2], the “Maximum mean fluorescence intensity” value came to 136 and the binding result is listed as “no binding”. The “Maximum mean fluorescence intensity” value in [3] came to 4510.

B2: S009-F2.58.8 (antibody, human IgG1, kappa, V domains shown)
VH: QVQLLQSGAELAKPGASVKLSCKASGYTFTSYWVHWVKQRPGQGLEWIGYINPNSGYTKYNQKFKDKATLTADKSSSTAYMQLSSLTYEDSAVYYCADHYYGSSRDYFDYWGQGTTLTVSS
VL: QIVLTQSPAIMSASPGEKVTMTCSASSSVSYMYWYQQRPGSSPRLLIYDTSNLASGVPVRFSGSGSGTSYSLTISRMEAEDAATYYCQQWNSYPYTFGGGTKLEIKR
notes: as for B1
Regarding B2, the EC50 in assay [1] amounted to 3.5 nM; in assay [3], 1.82 nM. The “Maximum mean fluorescence intensity” value in assay [1] was 141000; in assay [2], 366; in [3] it was 13100. For the same molecule, the binding result in assay [2] is listed as “no binding”.

B3: F7.44.20-H1 (scFv, not shown: small tags and cut ends)
scFv: EVQLVQSGAEVKKPGASVKVSCKASGYTFTDYNMDWVRQAPGQGLEWMGDINPSTGGTIYNQKFNGRVTMTEDKSTSTVYMELSSLRSEDTAVYYCARRRIGTGYFDVWGQGTTVTVSSGGGGSGGGGSGGGGSEIVLTQSPDFQSVTPKEKVTITCSASSSVISSYLSWYQQKPDQSPKLLIYRTSNLASGVPSRFSGSGSGTDFTLTINSLEAEDAATYYCHQWSSFPYTFGGGTKVEIK
notes: also called S009-F7.44.20 humanized antibody VH1 + VL1
For B3, the OD450 in [4] amounted to 0.05 OD450; with human MSLN-R3 protein [5], 0.05 OD450; with human MSLN-R3 protein [6], 2.27 OD450; with human MSLN-R3 protein [7], 0.16 OD450; with human MSLN-R3 protein [8], 0.05 OD450; in assay [9], 2.94 OD450. Moreover, the OD450 in [10] turned out to be 0.05 OD450; in assay [11], 1.46 OD450; in [12], 3.04 OD450; with human MSLN-R3 protein [13], 1.16 OD450; with human MSLN-R3 protein [14], 0.06 OD450; with human MSLN-R3 protein [15], 2.3 OD450. The OD450 in assay [16] amounted to 0.06 OD450; in assay [17], 0.22 OD450.

B4: F7.44.20-H6 (scFv, not shown: small tags and cut ends)
scFv: EVQLVQSGAEVKKPGASVKVSCKASGYTFTDYNMDWVRQAPGQGLEWMGDINPSTGGTIYNQKFQGRVTMTEDKSTSTVYMELSSLRSEDTAVYYCARRRIGTGYFDVWGQGTTVTVSSGGGGSGGGGSGGGGSEIVLTQSPDFQSVTPKEKVTITCSASSSVISSYLSWYQQKPDQSPKLLIYRTSNLASGVPSRFSGSGSGTDYTLTINSLEAEDAATYYCHQWSSFPYTFGGGTKVEIK
notes: also called S009-F7.44.20 humanized antibody VH1a + VL2
As to B4, the OD450 in [4] stood at 0.05 OD450; with human MSLN-R3 protein [5], 0.05 OD450; with human MSLN-R3 protein [6], 2.15 OD450; with human MSLN-R3 protein [7], 0.21 OD450; in the assay with human MSLN-R3 protein [8], 0.05 OD450; in [9], 2.91 OD450. In addition, the OD450 in [10] amounted to 0.05 OD450; in [11], 1.95 OD450; in [12], 3.04 OD450; with human MSLN-R3 protein [13] it was 1.31 OD450; with human MSLN-R3 protein [14], 0.05 OD450; with human MSLN-R3 protein [15], 2.12 OD450. Further, the figures for the OD450 in [16] and in [17] were 0.07 OD450 and 0.37 OD450, respectively.

B5: F7.44.20-H5 (scFv, not shown: small tags and cut ends)
scFv: EVQLVQSGAEVKKPGASVKVSCKASGYTFTDYNMDWVRQAPGQGLEWMGDINPSTGGTIYNQKFQGRVTMTEDKSTSTVYMELSSLRSEDTAVYYCARRRIGTGYFDVWGQGTTVTVSSGGGGSGGGGSGGGGSEIVLTQSPDFQSVTPKEKVTITCSASSSVISSYLSWYQQKPDQSPKLLIYRTSNLASGVPSRFSGSGSGTDFTLTINSLEAEDAATYYCHQWSSFPYTFGGGTKVEIK
notes: also called S009-F7.44.20 humanized antibody VH1a + VL1
As to B5, the OD450 in assay [4] was found to be 0.04 OD450; with human MSLN-R3 protein [5] it was 0.05 OD450; in the assay with human MSLN-R3 protein [6], 2.05 OD450; with human MSLN-R3 protein [7], 0.11 OD450; in the assay with human MSLN-R3 protein [8], 0.04 OD450; in [9] it was 3.01 OD450. Besides, the OD450 in assay [10] was determined as 0.04 OD450; in [11], 1.3 OD450; in assay [12] it was 2.94 OD450; in the assay with human MSLN-R3 protein [13], 0.8 OD450; with human MSLN-R3 protein [14] it was 0.04 OD450; with human MSLN-R3 protein [15], 2.27 OD450. The figures for the OD450 in assay [16] and in [17] were 0.05 OD450 and 0.19 OD450, respectively.

B6: F7.44.20-H2 (scFv, not shown: small tags and cut ends)
scFv: EVQLVQSGAEVKKPGASVKVSCKASGYTFTDYNMDWVRQAPGQGLEWMGDINPSTGGTIYNQKFNGRVTMTEDKSTSTVYMELSSLRSEDTAVYYCARRRIGTGYFDVWGQGTTVTVSSGGGGSGGGGSGGGGSEIVLTQSPDFQSVTPKEKVTITCSASSSVISSYLSWYQQKPDQSPKLLIYRTSNLASGVPSRFSGSGSGTDYTLTINSLEAEDAATYYCHQWSSFPYTFGGGTKVEIK
notes: also called S009-F7.44.20 humanized antibody VH1 + VL2
Turning to B6, the OD450 in [4] is 0.04 OD450; with human MSLN-R3 protein [5] it was 0.05 OD450; in the assay with human MSLN-R3 protein [6] it was 2.22 OD450; in the assay with human MSLN-R3 protein [7] it was 0.11 OD450; with human MSLN-R3 protein [8], 0.05 OD450; in [9], 2.71 OD450. Moreover, the OD450 in [10] was 0.04 OD450; in assay [11] it was 1.26 OD450; in assay [12], 3.06 OD450; with human MSLN-R3 protein [13], 0.95 OD450; with human MSLN-R3 protein [14], 0.05 OD450; with human MSLN-R3 protein [15], 2.35 OD450. Besides, the OD450 in assay [16] turned out to be 0.05 OD450; in assay [17], 0.16 OD450.

B7: F7.44.20-H10 (scFv, not shown: small tags and cut ends)
scFv: EVQLVQSGAEVKKPGASVKVSCKASGYTFTDYNMDWVRQAPGQGLEWMGDINPSTGGTIYNQKFNGRVTMTEDKSASTVYMELSSLRSEDTAVYYCARRRIGTGYFDVWGQGTTVTVSSGGGGSGGGGSGGGGSEIVLTQSPDFQSVTPKEKVTITCSASSSVISSYLSWYQQKPDQSPKLLIYRTSNLASGVPSRFSGSGSGTDYTLTINSLEAEDAATYYCHQWSSFPYTFGGGTKVEIK
notes: also called S009-F7.44.20 humanized antibody VH2 + VL2
For B7, the OD450 in assay [4] came out at 0.04 OD450; in the assay with human MSLN-R3 protein [5], 0.04 OD450; in the assay with human MSLN-R3 protein [6] it was 2.25 OD450; with human MSLN-R3 protein [7] it was 0.11 OD450; with human MSLN-R3 protein [8] it was 0.04 OD450; in [9], 2.93 OD450. For the same molecule, the OD450 was 0.05 OD450 in assay [10]; 1.44 OD450 in assay [11]; 3.25 OD450 in assay [12]; 0.81 OD450 with human MSLN-R3 protein [13]; 0.04 OD450 with human MSLN-R3 protein [14]; 2.44 OD450 in the assay with human MSLN-R3 protein [15]. The OD450 in assay [16] was determined as 0.06 OD450; in assay [17], 0.24 OD450.

B8: F7.44.20-H9 (scFv, not shown: small tags and cut ends)
scFv: EVQLVQSGAEVKKPGASVKVSCKASGYTFTDYNMDWVRQAPGQGLEWMGDINPSTGGTIYNQKFNGRVTMTEDKSASTVYMELSSLRSEDTAVYYCARRRIGTGYFDVWGQGTTVTVSSGGGGSGGGGSGGGGSEIVLTQSPDFQSVTPKEKVTITCSASSSVISSYLSWYQQKPDQSPKLLIYRTSNLASGVPSRFSGSGSGTDFTLTINSLEAEDAATYYCHQWSSFPYTFGGGTKVEIK
notes: also called S009-F7.44.20 humanized antibody VH2 + VL1
Turning to B8, the OD450 in [4] was 0.05 OD450; with human MSLN-R3 protein [5] it was 0.04 OD450; with human MSLN-R3 protein [6] it was 2.1 OD450; with human MSLN-R3 protein [7] it was 0.11 OD450; in the assay with human MSLN-R3 protein [8], 0.04 OD450; in assay [9], 2.97 OD450. In addition, the OD450 turned out to be 0.05 OD450 in [10]; 1.3 OD450 in assay [11]; 3.25 OD450 in assay [12]; 0.72 OD450 with human MSLN-R3 protein [13]; 0.04 OD450 in the assay with human MSLN-R3 protein [14]; 2.52 OD450 in the assay with human MSLN-R3 protein [15]. The OD450 turned out to be 0.06 OD450 in assay [16] and 0.19 OD450 in [17].
